Results taken from PMC5925814, “Impact of altered phosphorylation on loss of function of juvenile Parkinsonism–associated genetic variants of the E3 ligase parkin” (The Journal of Biological Chemistry, 2018).

T1: GST-tagged Pediculus humanus PINK1 (residues 128–575) (Pediculus humanus) (UniProt E0W1I1)
T1 sequence: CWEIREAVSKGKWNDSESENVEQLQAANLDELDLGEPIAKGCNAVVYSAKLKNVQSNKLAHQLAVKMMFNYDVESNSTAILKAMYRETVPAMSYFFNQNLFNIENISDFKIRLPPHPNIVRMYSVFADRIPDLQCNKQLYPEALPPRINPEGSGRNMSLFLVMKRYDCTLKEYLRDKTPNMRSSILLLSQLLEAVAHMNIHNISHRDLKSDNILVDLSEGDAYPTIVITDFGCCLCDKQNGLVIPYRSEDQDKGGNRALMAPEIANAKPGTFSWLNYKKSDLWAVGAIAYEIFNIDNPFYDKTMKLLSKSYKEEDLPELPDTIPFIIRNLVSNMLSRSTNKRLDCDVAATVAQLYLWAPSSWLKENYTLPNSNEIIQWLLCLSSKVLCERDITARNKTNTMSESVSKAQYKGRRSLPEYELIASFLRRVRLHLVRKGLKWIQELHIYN


Key:
[1] = biological target: T1, GST-tagged Pediculus humanus PINK1 (residues 128–575) (Pediculus humanus)
[2] = biological target: T1, GST-tagged Pediculus humanus PINK1 (residues 128–575) (Pediculus humanus); remark: listed apart in the source
[3] = biological target: T2, C-terminal portion of ataxin-3 (residues 194–361) containing three UIM regions (UniProt P54252 194-361); assay: NMR titration; unlabelled ataxin^194–361 titrated into 15N-labelled Ubl variants, 1H-15N HSQC chemical shift changes, global fit for a single Kd (apparent); 150 uM Ubl domain (75 uM pUbl^P37L); 25 mM HEPES, 100 mM NaCl, 0.5 mM TCEP, pH 7.0, 25 °C; conditions: both partners purified
T2 construct: Unlabelled in the NMR titrations; also called ataxin^194–361; tandem UIM region from ataxin-3; source: E. coli BL21(DE3), purified (Ni-NTA, TEV cleavage, second Ni-NTA)
T2 sequence (P54252 194-361): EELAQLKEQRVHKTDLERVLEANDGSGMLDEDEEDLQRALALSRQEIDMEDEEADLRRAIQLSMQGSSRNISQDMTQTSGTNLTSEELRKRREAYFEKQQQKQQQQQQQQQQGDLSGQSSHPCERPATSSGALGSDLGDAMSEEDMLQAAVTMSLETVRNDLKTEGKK

Molecule	Kd [3] [µM]	also measured
full-length parkin (1–465) G12R (from UniProt O60260 1-465) (enzyme)	–	rate of Ser-65 phosphorylation by PINK1 (time course, pSer-65 antibody Western blot), against WT full-length parkin [1]: 40%
parkin Ubl domain (1–76) I44A (from UniProt O60260 1-76) (domain or fragment)	–	phosphorylation by PINK1 against the WT Ubl domain (data not shown) [2]: 20 fold
parkin Ubl domain (1–76), wild type (domain or fragment, human, UniProt O60260 1-76, looked up, parkin, human, ubiquitin-like (Ubl) domain, residues 1-76; 15N-labelled for the NMR titrations; also called WT Ubl domain; source: E. coli BL21(DE3), purified (Ni-NTA, Ulp1 cleavage, Superdex75)) MIVFVRFNSSHGFPVEVDSDTSIFQLKEVVAKRQGVPADQLRVIFAGKELRNDWTVQNCDLDQQSIVHIVQRPWRK	187 ± 19	–
parkin Ser-65–phosphorylated Ubl domain (1–76) P37L (domain or fragment, human, UniProt O60260 1-76, looked up, phosphoserine at 65, parkin, human, ubiquitin-like (Ubl) domain, residues 1-76, ARJP substitution P37L, phosphorylated at Ser-65; 15N-labelled; used at 75 uM in the NMR titration; also called pUbl^P37L; pP37L; source: E. coli BL21(DE3), purified (Ni-NTA, Ulp1 cleavage, Superdex75); phosphorylated at Ser-65) MIVFVRFNSSHGFPVEVDSDTSIFQLKEVVAKRQGVLADQLRVIFAGKELRNDWTVQNCDLDQQSIVHIVQRPWRK	231 ± 72	–
parkin Ubl domain (1–76) P37L (domain or fragment, human, UniProt O60260 1-76, looked up, parkin, human, ubiquitin-like (Ubl) domain, residues 1-76, ARJP substitution P37L; 15N-labelled for the NMR titrations; Disease-associated (ARJP) substitution; also called Ubl^P37L; source: E. coli BL21(DE3), purified (Ni-NTA, Ulp1 cleavage, Superdex75)) MIVFVRFNSSHGFPVEVDSDTSIFQLKEVVAKRQGVLADQLRVIFAGKELRNDWTVQNCDLDQQSIVHIVQRPWRK	61 ± 2	–
parkin Ubl domain (1–76) S65E, phosphomimetic (domain or fragment, human, UniProt O60260 1-76, looked up, parkin, human, ubiquitin-like (Ubl) domain, residues 1-76, S65E; 15N-labelled for the NMR titrations; also called Ubl^S65E; source: E. coli BL21(DE3), purified (Ni-NTA, Ulp1 cleavage, Superdex75)) MIVFVRFNSSHGFPVEVDSDTSIFQLKEVVAKRQGVPADQLRVIFAGKELRNDWTVQNCDLDQQEIVHIVQRPWRK	227 ± 26	–
parkin Ser-65–phosphorylated Ubl domain (1–76) (domain or fragment, human, UniProt O60260 1-76, looked up, phosphoserine at 65, parkin, human, ubiquitin-like (Ubl) domain, residues 1-76, phosphorylated at Ser-65; 15N-labelled for the NMR titrations; the preparative phosphorylation is not described; also called pUbl; pSer-65 Ubl; source: E. coli BL21(DE3), purified (Ni-NTA, Ulp1 cleavage, Superdex75); phosphorylated at Ser-65) MIVFVRFNSSHGFPVEVDSDTSIFQLKEVVAKRQGVPADQLRVIFAGKELRNDWTVQNCDLDQQSIVHIVQRPWRK	652 ± 175	–
